Laboratory results: US20250026841A1 (AP BIOSCIENCES, published 2025)
Substitutions are numbered along the chain they refer to. Numbers in names are those of the source. Like-named read-outs stand apart in the source and are kept apart here.

T1: CD73, cell membrane-bound (expressed by MDA-MB-231 cells) (human, UniProt P21589 27-549)
T1 construct: whole, on cells; also called CD73-expressing MDA-MB-231 breast cancer cells
T1 sequence (looked up): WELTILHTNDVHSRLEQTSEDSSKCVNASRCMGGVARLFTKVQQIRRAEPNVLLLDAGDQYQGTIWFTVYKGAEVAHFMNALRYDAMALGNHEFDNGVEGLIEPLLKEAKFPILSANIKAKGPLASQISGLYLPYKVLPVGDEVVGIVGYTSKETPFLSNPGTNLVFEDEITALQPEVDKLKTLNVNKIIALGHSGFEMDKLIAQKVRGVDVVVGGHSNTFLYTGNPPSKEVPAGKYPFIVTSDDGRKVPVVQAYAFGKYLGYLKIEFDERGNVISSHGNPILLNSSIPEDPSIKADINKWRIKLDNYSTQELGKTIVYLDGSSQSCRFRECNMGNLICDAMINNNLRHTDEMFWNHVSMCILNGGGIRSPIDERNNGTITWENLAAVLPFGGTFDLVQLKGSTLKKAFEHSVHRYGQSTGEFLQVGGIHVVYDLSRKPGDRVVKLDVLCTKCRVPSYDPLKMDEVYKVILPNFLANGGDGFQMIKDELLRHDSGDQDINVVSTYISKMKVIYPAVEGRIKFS

T2: CD73 (antigen of the CD73 ELISA) (UniProt P21589 27-547, limits assumed)
T2 construct: the ELISA antigen is not described
T2 sequence (looked up): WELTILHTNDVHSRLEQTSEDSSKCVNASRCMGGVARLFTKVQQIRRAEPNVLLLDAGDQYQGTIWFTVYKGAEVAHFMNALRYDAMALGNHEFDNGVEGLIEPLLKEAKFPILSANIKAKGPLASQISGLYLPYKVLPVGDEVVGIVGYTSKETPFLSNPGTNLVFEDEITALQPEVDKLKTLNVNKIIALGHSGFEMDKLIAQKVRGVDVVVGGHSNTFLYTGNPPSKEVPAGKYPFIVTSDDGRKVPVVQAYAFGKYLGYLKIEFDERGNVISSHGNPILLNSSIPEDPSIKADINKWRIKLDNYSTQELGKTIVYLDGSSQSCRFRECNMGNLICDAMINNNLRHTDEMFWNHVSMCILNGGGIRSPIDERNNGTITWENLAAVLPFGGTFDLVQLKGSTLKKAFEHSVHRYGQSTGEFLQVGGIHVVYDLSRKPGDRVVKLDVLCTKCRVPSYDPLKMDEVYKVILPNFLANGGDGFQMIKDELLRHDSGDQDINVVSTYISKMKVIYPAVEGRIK

T3: soluble CD73 secreted by MDA-MB-231 cells (human, UniProt P21589 27-549, limits assumed)
T3 sequence (looked up): T1 sequence (looked up)

T4: his-tagged human CD73 (AcroBiosystems, Cat. No. CD3-H52H7) (human, UniProt P21589 27-547)
T4 construct: Bought protein; also called hCD73-His; human CD73 antigen; not shown: His tag
T4 sequence (looked up): T2 sequence (looked up)

B1: anti-p95HER2 antibody clone R4-11 (antibody, human IgG1, kappa, V domains shown)
VH: QITLKESGPTLVKPTQTLTLTCTFSGFSLSTSGVGVGWIRQPPGKALEWLALIYWDDDKRYSPSLKSRLTITKDTSKNQVVLTMTNMDPVDTATYYCAHAHPFSGSYNFWGQGTLVTVSS
VL: DIVMTQSPDSLAVSLGERATINCKSSQSVLFSSNNKDYLAWYQQRPGQPPKLLIHWASTREPGVPDRFSGSGSGTDFTLTISSLQAEDVAVYYCLQSYSNPPTFGQGTKVEIKR
notes: also called p95HER2 #R4-11; #R4-11 mAb
B2: CR3-16 (antibody, IgG1, V domains shown)
VH: QVQLVQSGAEVKKPGASVKVSCKASGYTFTDFYIHWVRQAPGQGLEWMGWINPYSGSTNYPQKFQGRVTMTRDTSISTAYMDLSSLTSDDTAVYLCVRGRWFDFDYWGQGTTVTVSS
VL: QSALTQPPSVSGSPGQSITISCTGTSSDVGTYNFVSWYQQHPGKVPKLIIYDVSNRPSGVSIRFSGSKSGNTASLTISGLQAEDEADYYCSSFRSGSTYVFGTGTRVTVLG
notes: also called anti-CD73 antibody clone 3-16
B3: anti-CD73 antibody clone 3-1-28 (antibody, human IgG1, lambda, N297A, V domains shown)
VH: QVQLVQSGAEVKKPGSSVKVSCKASGGTFSSYAISWVRQAPGQGLEWMGRIIPILGIANYAQKFQGRVTITADKSTSTAYMELSSLRSEDTAVYYCARDSPVHYYGSGSYYRDAFDIWGQGTMVTVSS
VL: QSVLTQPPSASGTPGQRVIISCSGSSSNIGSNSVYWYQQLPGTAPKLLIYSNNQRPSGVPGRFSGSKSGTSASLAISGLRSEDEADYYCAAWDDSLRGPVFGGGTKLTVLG
notes: also called CD73 #3-1-28; parental #3-1-28
B4: anti-CD73 #3-1-28-v3 (antibody, human IgG1, lambda, N297A, V domains shown)
VH: B3 VH with S107D, S109T, A114S
VL: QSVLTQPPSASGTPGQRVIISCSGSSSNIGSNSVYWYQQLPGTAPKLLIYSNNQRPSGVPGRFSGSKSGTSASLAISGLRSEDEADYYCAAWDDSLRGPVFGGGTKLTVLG
notes: also called #1911-030; anti-CD73 #3-1-28 (S107D S109T A114S)
B5: anti-CD73 #3-1-28-v1 (antibody, human IgG1, lambda, N297A, V domains shown)
VH: B3 VH
VL: QSVLTQPPSASGTPGQRVIISCSGSSSNIGSNSVYWYQQLPGTAPKLLIYANNERPSGVPGRFSGSKSGTSASLAISGLRSEDEADYYCAAWDDSLRGPVFGGGTKLTVLG
notes: engineered IgG1 constant region; also called #1919-003; anti-CD73 #3-1-28 (S51A Q54E)
B6: anti-CD73 #3-1-28-v2 (antibody, human IgG1, lambda, N297A, V domains shown)
VH: B3 VH with S107D, S109H
VL: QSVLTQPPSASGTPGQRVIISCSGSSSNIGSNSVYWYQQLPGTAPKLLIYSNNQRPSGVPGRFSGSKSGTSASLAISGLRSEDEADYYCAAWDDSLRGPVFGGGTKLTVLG
notes: also called #1911-022; anti-CD73 #3-1-28 (S107D S109H)
B7: CR3-1-37 (antibody, IgG1, V domains shown)
VH: QVQLVQSGAEVKRPGSSVKVSCKASGGTFSSYAISWVRQAPGQGLEWMGGIIPIFGTANYAQKFQGRVTITADESTSTAYMELSSLRSEDTAVYYCARGVSYYYGMHVWGQGTTVTVSS
VL: SYVLTQPPSVSVTPGKTARIACGGNNLESKIVSWYQQKPGQAPVLVIFYDTDRPSGISERFSGSNSGNTATLTISRVEAGDEADYYCQVWDSNSDHVIFGGGTKLTVLG
notes: also called anti-CD73 antibody clone 3-1-37
B8: anti-CD73 antibody clone 3-4 (antibody, V domains shown)
VH: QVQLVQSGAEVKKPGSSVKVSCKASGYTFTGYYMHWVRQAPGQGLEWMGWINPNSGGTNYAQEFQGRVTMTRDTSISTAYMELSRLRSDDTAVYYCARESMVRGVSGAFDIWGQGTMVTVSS
VL: QSALTQPASVSGSPGQSITISCTGTSSDVGSYNLVSWYQQHPGKAPKLMIYEGSKRPSGVSNRFSGSKSGNTASLTISGLQAEDEADYYCCSYAGSSGWDIGTGTKVTVLG
notes: also called CD73 #3-4; CR3-4

Experiments:
[1] = target: T5, mouse Fc tagged human CD137 protein (AcroBiosystems, Cat #41B-H5256) (human, UniProt Q07011 24-186); assay: BLI (Octet), biotinylated p95 peptide on SA sensor, antibody 100 nM, then CD137-mFc 100 nM
T5 construct: extracellular domain; Bought protein; also called CD137 extracellular domain fused with mouse Fc tag recombinant protein; human CD137 antigen
Procedure: The binding activities of anti-p95HER2-CD137 bispecific antibody was determined by ForteBIO® (Menlo Park, Calif.) biosensor analysis. In this method, the custom synthesis biotinylated Her2 p95 peptide (GenScript) was loaded onto SA (Streptavidin, ForteBIO, Cat #18-5019) biosensor at 50 μg/mL for 5 minutes. Sensors then were exposed to antibody samples at 100 nM for 5 minutes follow by associating with the mouse Fc tagged human CD137 protein (AcroBiosystems, Cat #41B-H5256) at 100 nM for 5 minutes. The binding chart were produced by Octet Data Acquisition and Analysis Software.

[2] = target: T1, CD73, cell membrane-bound (expressed by …); assay: flow cytometry, antibody 4 µg/ml on MDA-MB-231 cells, A488 anti-human IgG
Procedure: As illustrated in FIG. 15 the binding activity of anti-CD73 antibody leads was assessed by flow cytometer. MDA-MB-231 cells (1×10^5 cells) were surface stained with anti-CD73 antibody (4 μg/ml) for 30 minutes, then incubated with A488-conjugated anti-human IgG secondary antibody for 15 minutes on ice. Cells were analyzed by flow cytometer, and A488 fluorescence intensity was shown by histograms (left) and number (right table). As illustrated in FIG. 16 the blockade of CD73 enzymatic activity by anti-CD73 antibody leads was assessed. The enzymatic activity of CD73 expressed by MDA-MB-231 on the cell surface was blocked by anti-CD73 antibody leads.

[3] = target: T2, CD73 (antigen of the CD73 ELISA); assay: phage ELISA on coated CD73-flag-HIS; X-flag-HIS control bars not seen above the axis
[4] = target: T1, CD73, cell membrane-bound (expressed by …); assay: cell-based or functional assay
[5] = target: T3, soluble CD73 secreted by MDA-MB-231 …; assay: cell-based or functional assay
[6] = target: T4, his-tagged human CD73 (AcroBiosystems, …); assay: BLI (Octet), antibody on AHC sensor, hCD73-His 2-fold from 30 nM, 7 points
Procedure: (§1) The affinity of anti-CD73 mAbs and bsAbs were determined by biolayer interferometry analysis (ForteBIO, USA). In this method, anti-CD73 antibodies were loaded at 5 μg/mL on AHC (Anti-Human IgG Fc Capture, ForteBIO, Cat. No. 18-5060) for signal reach to approximate 0.5 nm. Sensors then were exposed to his-tagged human CD73 (AcroBiosystems, Cat. No. CD3-H52H7)-containing solutions that 2-fold serial diluted from the top concentration 30 nM for total 7 points. Measurements were performed as follows: 1 minute baseline in kinetic buffer, 5 minutes association in hCD73-His-containing solutions, and 5 minutes dissociation into kinetic buffer. The kinetic parameters were calculated and produced by Octet Data Acquisition and Analysis Software.

[7] = target: T5, mouse Fc tagged human CD137 protein …; assay: BLI (Octet), hCD73-His on HIS1K sensor, antibody 100 nM, then CD137-mFc 100 nM
Procedure: The binding activities of the AP601 was determined by ForteBIO® (Menlo Park, Calif.) biosensor analysis. In this method, the His tagged human CD73 protein (AcroBiosystems, Cat. No. CD3-H52H7) were loaded onto HIS1K (Anti-Penta-HIS) biosensor (Cat. No. 18-5120) at 5 μg/mL for 5 minutes. Sensors then were exposed to antibody samples at 100 nM for 5 minutes follow by associating with the mouse Fc tagged human CD137 protein (AcroBiosystems, Cat. No. 41B-H5256) at 100 nM for 5 minutes. The binding chart were produced by Octet Data Acquisition and Analysis Software.

[8] = target: T4, his-tagged human CD73 (AcroBiosystems, …); assay: biolayer interferometry; antibody captured on AHC sensor, hCD73-His as analyte
Procedure: as §1

[9] = target: T2, CD73 (antigen of the CD73 ELISA); assay: phage ELISA on coated CD73-flag-HIS; X-flag-HIS control bars not seen above the axis; remark: listed apart in the source

Binder | binding result [2] | IC50, inhibition of cell membrane-bound CD73 enzyme (AMP-Glo, MDA-MB-231 cells) [4] [nM] | IC50, inhibition of soluble CD73 enzyme (AMP-Glo, MDA-MB-231 cultured medium) [5] [nM] | Kd [6] [nM] | fold improvement of binding affinity against parental #3-1-28 [8] [fold] | further results
B1 | – | – | – | – | – | binding result [1]: no binding (tested: 100 nM)
B2 | binds | – | – | – | – | binding result [3]: binds
B3 | – | 0.49 | 1.48 | 1.04 | – | binding result [7]: no binding (tested: 100 nM)
B4 | – | – | 0.241 | 0.553 | ~2 | –
B5 | – | 0.213 | 0.187 | 0.344 | ~2 | –
B6 | – | 0.245 | 0.273 | 0.523 | ~2 | –
B7 | binds | – | – | – | – | binding result [9]: binds
B8 | binds | – | – | – | – | binding result [3]: binds
